The supplement of paper PMC9112550, “Optimization of the antimicrobial peptide Bac7 by deep mutational scanning” (BMC Biology, 2022)

System: Escherichia coli TOP10
Assay: shrunken log2 fold change of peptide-encoding DNA abundance (4.5 h post-induction vs induction); higher = less antimicrobial activity (less host growth inhibition)
Conditions: time post-induction: 4.5 h; library: site-saturation at positions 5, 18, 19, 20
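Also: peptides expressed intracellularly from a pBAD plasmid library in pooled LB shake-flask culture, induced with 0.3% L-arabinose, DNA abundance read by NGS, three biological replicates, DESeq2 with apeglm shrinkage.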

Sequence | shrunken log2 fold change
RRIRIRPPRLPRPRPRPLMEPRP | -0.278
RRIRPRPPRLPRPRPRPVKNPRP | 0.00624
RRIRMRPPRLPRPRPRPVCIPRP | -0.0455
RRIRIRPPRLPRPRPRPQVHPRP | -0.707
RRIRQRPPRLPRPRPRPCIWPRP | -0.018
RRIRHRPPRLPRPRPRPNMCPRP | -0.126
RRIRMRPPRLPRPRPRPGYFPRP | 0.0909
RRIRPRPPRLPRPRPRPKLYPRP | 0.0311
RRIRRRPPRLPRPRPRPWDFPRP | 0.0406
RRIRNRPPRLPRPRPRPVLWPRP | 0.00135
RRIRVRPPRLPRPRPRPVYVPRP | -0.0177
RRIRFRPPRLPRPRPRPCAAPRP | 0.35
RRIRIRPPRLPRPRPRPQLHPRP | -0.252
RRIRTRPPRLPRPRPRPMLDPRP | -0.0137
RRIRRRPPRLPRPRPRPFYQPRP | -0.46
RRIRMRPPRLPRPRPRPEYCPRP | 0.0929
RRIRKRPPRLPRPRPRPTLMPRP | 0.758
RRIRIRPPRLPRPRPRPRMSPRP | -0.323
RRIRFRPPRLPRPRPRPMDCPRP | 0.00893
RRIRERPPRLPRPRPRPSTMPRP | -0.925
RRIRRRPPRLPRPRPRPAKIPRP | 0.117
RRIRPRPPRLPRPRPRPYPQPRP | -0.252
RRIRDRPPRLPRPRPRPQWLPRP | 0.24
RRIRTRPPRLPRPRPRPKEAPRP | 0.00564
RRIRRRPPRLPRPRPRPELPPRP | 0.695

Sequence | shrunken log2 fold change
RRIRSRPPRLPRPRPRPMDRPRP | -0.155
RRIRWRPPRLPRPRPRPLKKPRP | 0.0518
RRIRERPPRLPRPRPRPCRMPRP | -0.363
RRIRGRPPRLPRPRPRPWWNPRP | -0.148
RRIRWRPPRLPRPRPRPWRDPRP | 0.433
RRIRPRPPRLPRPRPRPWLAPRP | 0.343
RRIRIRPPRLPRPRPRPWRGPRP | -0.129
RRIRRRPPRLPRPRPRPIKEPRP | 0.0124
RRIRIRPPRLPRPRPRPEKDPRP | -0.0191
RRIRARPPRLPRPRPRPTDQPRP | 0.918
RRIRLRPPRLPRPRPRPTCPPRP | 0.0694
RRIRCRPPRLPRPRPRPKHPPRP | -0.0559
RRIRTRPPRLPRPRPRPLHNPRP | -0.557
RRIRCRPPRLPRPRPRPQARPRP | -0.421
RRIRFRPPRLPRPRPRPEEMPRP | -0.00182
RRIRDRPPRLPRPRPRPTHIPRP | -0.656
RRIRVRPPRLPRPRPRPHVYPRP | -0.13
RRIRFRPPRLPRPRPRPHLIPRP | -0.415
RRIRMRPPRLPRPRPRPFHNPRP | -0.00804
RRIRERPPRLPRPRPRPFALPRP | -0.256
RRIRGRPPRLPRPRPRPPFEPRP | 0.691
RRIRMRPPRLPRPRPRPPAQPRP | 1.08
RRIRNRPPRLPRPRPRPGRRPRP | 0.79
RRIRERPPRLPRPRPRPVLKPRP | 0.0458
RRIRHRPPRLPRPRPRPGELPRP | 0.0143

Sequence | shrunken log2 fold change
RRIRLRPPRLPRPRPRPMHHPRP | 0.0581
RRIRCRPPRLPRPRPRPCCEPRP | 0.0666
RRIRSRPPRLPRPRPRPLKSPRP | 0.0254
RRIRERPPRLPRPRPRPFFYPRP | -0.258
RRIRYRPPRLPRPRPRPTVGPRP | 0.0163
RRIRVRPPRLPRPRPRPPVMPRP | -0.105
RRIRARPPRLPRPRPRPMNHPRP | -0.151
RRIRPRPPRLPRPRPRPLHDPRP | -0.034
RRIRGRPPRLPRPRPRPLISPRP | 0.364
RRIRPRPPRLPRPRPRPCMVPRP | -0.423
RRIRARPPRLPRPRPRPERDPRP | 0.613
RRIRVRPPRLPRPRPRPKDTPRP | -0.038
RRIRFRPPRLPRPRPRPVWYPRP | -0.308
RRIRKRPPRLPRPRPRPNTEPRP | 0.0416
RRIRTRPPRLPRPRPRPQSNPRP | -0.581
RRIRSRPPRLPRPRPRPPICPRP | 0.635
RRIRGRPPRLPRPRPRPNIGPRP | 0.138
RRIRQRPPRLPRPRPRPVATPRP | -0.00506
RRIRWRPPRLPRPRPRPPQRPRP | 0.548
RRIRLRPPRLPRPRPRPYIAPRP | -0.261
RRIRGRPPRLPRPRPRPSCEPRP | 0.507
RRIRIRPPRLPRPRPRPCIKPRP | -0.185
RRIRARPPRLPRPRPRPGCPPRP | 0.343
RRIRRRPPRLPRPRPRPWVMPRP | -0.123
RRIRNRPPRLPRPRPRPCYPPRP | -0.318

Sequence | shrunken log2 fold change
RRIRMRPPRLPRPRPRPRMCPRP | 0.0537
RRIRDRPPRLPRPRPRPECFPRP | 1.46
RRIRLRPPRLPRPRPRPSTHPRP | -0.59
RRIRVRPPRLPRPRPRPQRSPRP | -0.431
RRIRGRPPRLPRPRPRPLCRPRP | 0.598
RRIRPRPPRLPRPRPRPCHEPRP | -0.316
RRIRNRPPRLPRPRPRPHPCPRP | 0.231
RRIRRRPPRLPRPRPRPCYAPRP | 1.3
RRIRNRPPRLPRPRPRPVDCPRP | -0.209
RRIRKRPPRLPRPRPRPETSPRP | 1.02
RRIRERPPRLPRPRPRPPKKPRP | 0.0812
RRIRNRPPRLPRPRPRPSTGPRP | -0.266
RRIRLRPPRLPRPRPRPWCRPRP | 0.0427
RRIRWRPPRLPRPRPRPSVHPRP | -0.136
RRIRYRPPRLPRPRPRPEDFPRP | -0.00133
RRIRLRPPRLPRPRPRPRWQPRP | 0.217
RRIRNRPPRLPRPRPRPGAHPRP | 0.0408
RRIRGRPPRLPRPRPRPCLHPRP | 0.331
RRIRVRPPRLPRPRPRPRDTPRP | -0.0483
RRIRTRPPRLPRPRPRPLRRPRP | 0.323
RRIRMRPPRLPRPRPRPVKKPRP | 0.0481
RRIRCRPPRLPRPRPRPPQFPRP | 0.695
RRIRFRPPRLPRPRPRPEAGPRP | 0.806
RRIRMRPPRLPRPRPRPMSGPRP | 0.858
RRIRPRPPRLPRPRPRPHFNPRP | -0.433

Sequence | shrunken log2 fold change
RRIRSRPPRLPRPRPRPKCIPRP | -0.256
RRIRTRPPRLPRPRPRPCRVPRP | -0.346
RRIRHRPPRLPRPRPRPQHPPRP | -0.396
RRIRQRPPRLPRPRPRPNYFPRP | -0.149
RRIRSRPPRLPRPRPRPHPMPRP | -0.236
RRIRWRPPRLPRPRPRPWWRPRP | 0.0782
RRIRTRPPRLPRPRPRPQNKPRP | -0.664
RRIRERPPRLPRPRPRPEREPRP | 0.414
RRIRIRPPRLPRPRPRPDAQPRP | -0.0523
RRIRFRPPRLPRPRPRPCTRPRP | 0.0381
RRIRFRPPRLPRPRPRPPNLPRP | -0.0642
RRIRMRPPRLPRPRPRPHMFPRP | -0.222
RRIRYRPPRLPRPRPRPFKRPRP | -0.294
RRIRQRPPRLPRPRPRPLVFPRP | -0.0658
RRIRHRPPRLPRPRPRPFHPPRP | -0.274
RRIRRRPPRLPRPRPRPRPAPRP | 1.83
RRIRSRPPRLPRPRPRPICIPRP | -0.494
RRIRNRPPRLPRPRPRPRSVPRP | 0.258
RRIRHRPPRLPRPRPRPMRWPRP | 0.396
RRIRARPPRLPRPRPRPNKNPRP | 0.0222
RRIRARPPRLPRPRPRPIGAPRP | 0.716
RRIRARPPRLPRPRPRPVDGPRP | 0.381
RRIRVRPPRLPRPRPRPFTPPRP | -0.412
RRIRPRPPRLPRPRPRPCNTPRP | -0.333
RRIRYRPPRLPRPRPRPPHWPRP | 0.203
